The values below come from patent US20130145485.

Holding throughout (test): cell_activity
The subject of series [1] is ZFN 32398 (synthetic construct). Conditions: pair 32401/32398, DLSSA reporter in Neuro2A; pVAX control 0.16.
The test system of series [2] is ZFN 9940 (synthetic construct). Conditions: pair 12897/9940 with donor, CF iPS cells; 21 of 64 clones; scale: % puroR clones with targeted insertion.
The test system of series [3] is ZFN 32366 (synthetic construct). Conditions: pair 32365/32366, K562 cells.
The subject of series [4] is ZFN 12897 (synthetic construct). The conditions noted are these: pair 12897/9940 with donor, CF iPS cells; 21 of 64 clones; scale: % puroR clones with targeted insertion.
Series [5] relates to ZFN 32365 (synthetic construct). Conditions: pair 32365/32366, K562 cells.
The test system of series [6] is ZFN 32376 (synthetic construct). The conditions noted are these: pair 32375/32376, K562 cells.
Series [7] concerns ZFN 32401 (synthetic construct). The conditions noted are these: pair 32401/32398, DLSSA reporter in Neuro2A; pVAX control 0.16.
The test system of series [8] is ZFN 32375 (synthetic construct). The conditions noted are these: pair 32375/32376, K562 cells.

For “ACACCAATGATATTTTCTTTAATGGTGC (double strand) [32398 target site]”, the activity (firefly/renilla ratio) in series [1] stood at 1.45.

On to “AGTGATTATGGGAGAACTGGATGTTCACAGTCAGTCCACACGTC (double strand) [9940 target site]”, for which the activity in series [2] was found to be 33.

The sequence “ATATAGATACAGAAGCGTCATCAAAGCA (double strand) [32366 target site]” had an activity in series [3] of 9 % indels.

“ATTAGAAGTGAAGTCTGGAAATAAAACC (double strand) [12897 target site]” yielded an activity in series [4] of 33.

Regarding “CATCATAGGAAACACCAAAGATGATATT (double strand) [32365 target site]”, the activity in series [5] stood at 9 % indels.

Take “CCAACTAGAAGAGGTAAGAAACTATGTG (double strand) [32376 target site]”: the activity in series [6] turned out to be 12 % indels.

“CCTATGATGAATATAGATACAGAAGCGT (double strand) [32401 target site]”: the activity (firefly/renilla ratio) in series [7] amounted to 1.45.

With “GCTTTGATGACGCTTCTGTATCTATATT (double strand) [32375 target site]”, in series [8], the activity worked out at 12 % indels.
